Bridge positions count the residues as written; N and C are the ends. Square brackets hold non-standard residues; d marks the D form. Primed or numbered codes have the meaning given here. Ends that are not written are not given here. * marks the point of attachment. O‑Bzl(CF3)2 = C-terminal bis(trifluoromethyl)benzyl ester; NH(3,5-(CF3)2-benzyl) = FC(F)(F)c1cc(CN*)cc(C(F)(F)F)c1; OBzl(3,5-(CF3)2) = FC(F)(F)c1cc(CO*)cc(C(F)(F)F)c1; O‑Bzl(CF3)2(3) = C-terminal O-Bzl(CF3)2 ester; NH‑Bn(CF3)2 = C-terminal Bn(CF3)2 amide; dPen = CC(C)(S)[C@@H](N)C(=O)O; Pen = CC(C)(S)[C@H](N)C(=O)O; Nle = CCCC[C@H](N)C(=O)O; Abu = CC[C@H](N)C(=O)O; GABA = NCCCC(=O)O; βAla = NCCC(=O)O
These binders were tested against guinea pig NK1 receptor (guinea pig) (UniProt P30547) (assay: cell-based or functional assay).
guinea pig NK1 receptor (guinea pig), sequence (P30547 whole entry): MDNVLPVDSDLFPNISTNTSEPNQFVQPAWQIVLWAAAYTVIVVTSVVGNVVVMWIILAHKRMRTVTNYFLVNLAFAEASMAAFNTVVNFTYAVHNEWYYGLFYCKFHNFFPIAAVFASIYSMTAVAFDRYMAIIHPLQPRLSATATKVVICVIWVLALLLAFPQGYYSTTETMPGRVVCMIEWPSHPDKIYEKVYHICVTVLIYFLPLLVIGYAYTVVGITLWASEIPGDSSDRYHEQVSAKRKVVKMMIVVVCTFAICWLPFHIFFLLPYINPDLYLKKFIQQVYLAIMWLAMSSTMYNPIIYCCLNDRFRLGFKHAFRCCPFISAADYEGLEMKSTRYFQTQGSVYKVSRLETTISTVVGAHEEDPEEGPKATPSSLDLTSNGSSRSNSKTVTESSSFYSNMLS

Binder	GPI/LMMP SP antagonist Ke [nM]	GPI SP-antagonist Ke [nM]
Y[dA]GFGW-{O‑Bzl(CF3)2(3)} [Tyr-DAla-Gly-Phe-Gly-Trp-O-Bzl(CF3)2 (NP30)]	58.9	–
Y[dA]GFAW-{O‑Bzl(CF3)2(3)} [Tyr-DAla-Gly-Phe-Ala-Trp-O-Bzl(CF3)2 (NP31)]	18.6	–
Y[dA]GF[βAla]W-{O‑Bzl(CF3)2(3)} [Tyr-DAla-Gly-Phe-β-Ala-Trp-O-Bzl(CF3)2 (NP32)]	250	–
Y[dA]GF[Abu]W-{O‑Bzl(CF3)2(3)} [Tyr-DAla-Gly-Phe-α-Abu-Trp-O-Bzl(CF3)2 (NP33)]	5.6	–
Y[dA]GF[GABA]W-{O‑Bzl(CF3)2(3)} [Tyr-DAla-Gly-Phe-γ-Abu-Trp-O-Bzl(CF3)2 (NP34)]	0.96	–
Y[dA]GFMW-{O‑Bzl(CF3)2} [Tyr-DAla-Gly-Phe-Met-Trp-O-Bzl(CF3)2 (NP38)]	2	–
Y[dA]GFPW-{O‑Bzl(CF3)2} [Tyr-DAla-Gly-Phe-Pro-Trp-O-Bzl(CF3)2 (NP39)]	1.8	–
Y[dA]GF[dA]W-{O‑Bzl(CF3)2(3)} [Tyr-DAla-Gly-Phe-D-Ala-Trp-O-Bzl(CF3)2 (NP40)]	608	–
Y[dA]GFW-{OBzl(3,5-(CF3)2)} [Tyr-D-Ala-Gly-Phe-Trp-O-3′,5′(CF3)2-Bzl (NP36)]	–	38
Y[dA]GW-{OBzl(3,5-(CF3)2)} [Tyr-D-Ala-Gly-Trp-O-3′,5′(CF3)2-Bzl (NP44)]	–	5

Each binder was assayed against human δ opioid receptor (human) (UniProt P41143) (assay: cell-based or functional assay).
human δ opioid receptor (human), sequence (P41143 whole entry, stated change not applied): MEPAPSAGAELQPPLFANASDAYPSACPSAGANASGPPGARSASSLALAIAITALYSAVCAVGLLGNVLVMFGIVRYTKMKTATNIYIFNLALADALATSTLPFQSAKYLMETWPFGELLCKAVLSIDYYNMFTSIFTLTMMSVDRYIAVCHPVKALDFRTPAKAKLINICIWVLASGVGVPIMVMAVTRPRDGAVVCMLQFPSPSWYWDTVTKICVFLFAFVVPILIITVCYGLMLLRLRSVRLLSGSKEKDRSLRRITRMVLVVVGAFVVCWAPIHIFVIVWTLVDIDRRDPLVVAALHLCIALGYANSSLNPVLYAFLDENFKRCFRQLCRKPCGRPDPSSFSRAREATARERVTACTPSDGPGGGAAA

Binder	GTP binding hDOR EC50 [nM]	GTP binding hDOR Emax [%]
Y[dC]GF[Nle]P[dC]W-{NH(3,5-(CF3)2-benzyl)} (disulfide 2-7) [Tyr[DCysGlyPheNleProDCys]TrpNHBn(CF3)2 (TY038)]	14	87

Each binder was assayed against rat µ opioid receptor (rat) (UniProt P33535) (assay: cell-based or functional assay).
rat µ opioid receptor (rat), sequence (P33535 whole entry): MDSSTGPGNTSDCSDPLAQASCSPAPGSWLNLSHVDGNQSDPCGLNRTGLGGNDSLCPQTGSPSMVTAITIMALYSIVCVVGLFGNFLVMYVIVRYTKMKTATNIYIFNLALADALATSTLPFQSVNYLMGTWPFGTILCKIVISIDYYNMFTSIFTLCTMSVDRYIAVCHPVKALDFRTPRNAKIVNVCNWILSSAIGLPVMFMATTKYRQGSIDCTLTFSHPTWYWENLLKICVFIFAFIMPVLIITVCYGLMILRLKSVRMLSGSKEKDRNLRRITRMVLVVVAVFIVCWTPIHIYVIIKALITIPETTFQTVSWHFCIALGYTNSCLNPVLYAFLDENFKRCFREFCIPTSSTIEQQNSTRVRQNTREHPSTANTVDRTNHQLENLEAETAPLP

Binder	GTP binding EC50 [nM]	GTP binding Emax [%]	GTP binding rMOR EC50 [nM]	GTP binding rMOR Emax [%]
Y[dPen]GF[Nle]P[Pen]W-{NH(3,5-(CF3)2-benzyl)} (disulfide 2-7) [Tyr[DPenGlyPheNleProPen]TrpNHBn(CF3)2]	2910	15	–	–
Y[dC]GF[Nle]P[dC]W-{NH(3,5-(CF3)2-benzyl)} (disulfide 2-7) [Tyr[DCysGlyPheNleProDCys]TrpNHBn(CF3)2 (TY038)]	–	–	21.7	11
Y[dPen]GF[Nle]P[Pen]W-{NH‑Bn(CF3)2} (disulfide 2-7) [Tyr[DPenGlyPheNleProPen]TrpNHBn(CF3)2 (TY047)]	–	–	2910	15

These binders were tested against µ opioid receptor of the guinea pig isolated ileum (guinea pig) (UniProt P97266) (assay: cell-based or functional assay).
µ opioid receptor of the guinea pig isolated ileum (guinea pig), sequence (P97266 whole entry): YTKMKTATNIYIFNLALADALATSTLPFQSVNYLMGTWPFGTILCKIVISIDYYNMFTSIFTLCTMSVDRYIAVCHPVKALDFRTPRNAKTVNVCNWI

Binder	GPI/LMMP µ-agonist IC50 [nM]
Y[dA]GFGW-{O‑Bzl(CF3)2(3)} [Tyr-DAla-Gly-Phe-Gly-Trp-O-Bzl(CF3)2 (NP30)]	25.7
Y[dA]GFAW-{O‑Bzl(CF3)2(3)} [Tyr-DAla-Gly-Phe-Ala-Trp-O-Bzl(CF3)2 (NP31)]	401
Y[dA]GF[βAla]W-{O‑Bzl(CF3)2(3)} [Tyr-DAla-Gly-Phe-β-Ala-Trp-O-Bzl(CF3)2 (NP32)]	435
Y[dA]GF[Abu]W-{O‑Bzl(CF3)2(3)} [Tyr-DAla-Gly-Phe-α-Abu-Trp-O-Bzl(CF3)2 (NP33)]	600
Y[dA]GF[GABA]W-{O‑Bzl(CF3)2(3)} [Tyr-DAla-Gly-Phe-γ-Abu-Trp-O-Bzl(CF3)2 (NP34)]	200
Y[dA]GF[dA]W-{O‑Bzl(CF3)2(3)} [Tyr-DAla-Gly-Phe-D-Ala-Trp-O-Bzl(CF3)2 (NP40)]	528

These binders were tested against δ opioid receptor of the mouse isolated vas deferens (mouse) (UniProt P32300) (assay: cell-based or functional assay).
δ opioid receptor of the mouse isolated vas deferens (mouse), sequence (P32300 whole entry, stated change not applied): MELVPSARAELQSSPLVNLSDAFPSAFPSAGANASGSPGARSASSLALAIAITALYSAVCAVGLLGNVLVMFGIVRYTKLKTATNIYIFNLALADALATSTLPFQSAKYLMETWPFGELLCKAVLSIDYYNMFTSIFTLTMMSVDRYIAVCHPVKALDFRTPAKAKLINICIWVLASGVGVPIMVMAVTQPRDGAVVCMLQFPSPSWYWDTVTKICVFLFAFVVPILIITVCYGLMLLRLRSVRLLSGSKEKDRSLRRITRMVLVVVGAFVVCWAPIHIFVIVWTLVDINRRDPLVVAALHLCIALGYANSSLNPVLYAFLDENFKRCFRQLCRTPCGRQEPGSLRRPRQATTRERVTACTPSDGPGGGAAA

Binder	MVD δ-agonist IC50 [nM]
Y[dA]GFGW-{O‑Bzl(CF3)2(3)} [Tyr-DAla-Gly-Phe-Gly-Trp-O-Bzl(CF3)2 (NP30)]	20.9
Y[dA]GFAW-{O‑Bzl(CF3)2(3)} [Tyr-DAla-Gly-Phe-Ala-Trp-O-Bzl(CF3)2 (NP31)]	6.4
Y[dA]GF[βAla]W-{O‑Bzl(CF3)2(3)} [Tyr-DAla-Gly-Phe-β-Ala-Trp-O-Bzl(CF3)2 (NP32)]	12.6
Y[dA]GF[Abu]W-{O‑Bzl(CF3)2(3)} [Tyr-DAla-Gly-Phe-α-Abu-Trp-O-Bzl(CF3)2 (NP33)]	12.4
Y[dA]GF[GABA]W-{O‑Bzl(CF3)2(3)} [Tyr-DAla-Gly-Phe-γ-Abu-Trp-O-Bzl(CF3)2 (NP34)]	67.9
Y[dA]GFMW-{O‑Bzl(CF3)2} [Tyr-DAla-Gly-Phe-Met-Trp-O-Bzl(CF3)2 (NP38)]	9.07
Y[dA]GFPW-{O‑Bzl(CF3)2} [Tyr-DAla-Gly-Phe-Pro-Trp-O-Bzl(CF3)2 (NP39)]	84.6
Y[dA]GF[dA]W-{O‑Bzl(CF3)2(3)} [Tyr-DAla-Gly-Phe-D-Ala-Trp-O-Bzl(CF3)2 (NP40)]	58
Y[dA]GFW-{OBzl(3,5-(CF3)2)} [Tyr-D-Ala-Gly-Phe-Trp-O-3′,5′(CF3)2-Bzl (NP36)]	43.1
Y[dA]GW-{OBzl(3,5-(CF3)2)} [Tyr-D-Ala-Gly-Trp-O-3′,5′(CF3)2-Bzl (NP44)]	303

What follows are binders tested against δ opioid receptor of the mouse isolated vas deferens (mouse), P32300 (assay: cell-based or functional assay).
δ opioid receptor of the mouse isolated vas deferens (mouse), P32300, sequence (P32300 whole entry, stated change not applied): as above

Binder	MVD opioid(delta) agonist IC50 [nM]
Y[dC]GF[Nle]P[dC]W-{NH(3,5-(CF3)2-benzyl)} (disulfide 2-7) [Tyr[DCysGlyPheNleProDCys]TrpNHBn(CF3)2 (TY038)]	18.9

These binders were tested against rat µ opioid receptor (rat) (UniProt P33535) (assay: competition vs [3H]DAMGO, rMOR cell membranes).

Binder	Ki [nM]
Y[dPen]GF[Nle]P[Pen]W-{NH(3,5-(CF3)2-benzyl)} (disulfide 2-7) [Tyr[DPenGlyPheNleProPen]TrpNHBn(CF3)2]	1970

What follows are binders tested against human δ opioid receptor (human) (UniProt P41143) (assay: competition vs [3H]DPDPE, hDOR cell membranes).

Binder	Ki [nM]
Y[dPen]GF[Nle]P[Pen]W-{NH(3,5-(CF3)2-benzyl)} (disulfide 2-7) [Tyr[DPenGlyPheNleProPen]TrpNHBn(CF3)2]	152

What follows are binders tested against human NK1 receptor (human) (UniProt P25103) (assay: competition vs [3H]Substance P, hNK1 CHO cell membranes).
human NK1 receptor (human), sequence (P25103 whole entry): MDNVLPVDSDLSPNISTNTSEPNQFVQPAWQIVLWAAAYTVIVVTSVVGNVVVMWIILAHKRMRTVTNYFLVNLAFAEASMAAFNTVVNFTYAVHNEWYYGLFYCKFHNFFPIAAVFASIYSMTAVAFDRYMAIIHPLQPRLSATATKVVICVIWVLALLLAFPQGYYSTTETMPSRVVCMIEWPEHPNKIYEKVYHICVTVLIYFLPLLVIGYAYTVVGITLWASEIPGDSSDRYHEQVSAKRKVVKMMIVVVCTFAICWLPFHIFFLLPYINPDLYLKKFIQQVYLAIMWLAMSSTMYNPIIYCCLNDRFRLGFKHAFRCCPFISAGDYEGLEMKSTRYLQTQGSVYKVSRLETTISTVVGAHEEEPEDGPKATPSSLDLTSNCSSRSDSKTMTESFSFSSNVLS

Binder	Ki [nM]
Y[dPen]GF[Nle]P[Pen]W-{NH(3,5-(CF3)2-benzyl)} (disulfide 2-7) [Tyr[DPenGlyPheNleProPen]TrpNHBn(CF3)2]	59

Each binder was assayed against rat NK1 receptor (rat) (UniProt P14600) (assay: competition vs [3H]Substance P, rNK1 CHO cell membranes).
rat NK1 receptor (rat), sequence (P14600 whole entry): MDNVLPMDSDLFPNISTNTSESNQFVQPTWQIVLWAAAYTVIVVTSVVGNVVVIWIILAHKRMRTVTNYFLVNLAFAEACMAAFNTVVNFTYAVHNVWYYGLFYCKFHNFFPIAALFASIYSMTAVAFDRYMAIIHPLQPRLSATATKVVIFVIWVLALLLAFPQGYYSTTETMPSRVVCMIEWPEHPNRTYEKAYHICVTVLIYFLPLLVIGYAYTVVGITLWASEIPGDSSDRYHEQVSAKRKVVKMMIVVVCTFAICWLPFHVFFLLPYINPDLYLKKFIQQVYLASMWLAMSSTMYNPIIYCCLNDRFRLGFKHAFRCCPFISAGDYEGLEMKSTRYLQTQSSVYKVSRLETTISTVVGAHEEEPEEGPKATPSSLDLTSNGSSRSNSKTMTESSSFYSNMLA

Binder	Ki [nM]
Y[dPen]GF[Nle]P[Pen]W-{NH(3,5-(CF3)2-benzyl)} (disulfide 2-7) [Tyr[DPenGlyPheNleProPen]TrpNHBn(CF3)2]	163

Each binder was assayed against rat µ opioid receptor (rat) (UniProt P33535) (assay: radioligand competition vs [3H]DAMGO, membranes of rMOR cells).

Binder	Ki [nM]
Y[dC]GF[Nle]P[dC]W-{NH(3,5-(CF3)2-benzyl)} (disulfide 2-7) [Tyr[DCysGlyPheNleProDCys]TrpNHBn(CF3)2 (TY038)]	156
Y[dPen]GF[Nle]P[Pen]W-{NH‑Bn(CF3)2} (disulfide 2-7) [Tyr[DPenGlyPheNleProPen]TrpNHBn(CF3)2 (TY047)]	1970

The binders below were run against human δ opioid receptor (human) (UniProt P41143) (assay: radioligand competition vs [3H]DPDPE, membranes of hDOR cells).

Binder	Ki [nM]
Y[dC]GF[Nle]P[dC]W-{NH(3,5-(CF3)2-benzyl)} (disulfide 2-7) [Tyr[DCysGlyPheNleProDCys]TrpNHBn(CF3)2 (TY038)]	55.5
Y[dPen]GF[Nle]P[Pen]W-{NH‑Bn(CF3)2} (disulfide 2-7) [Tyr[DPenGlyPheNleProPen]TrpNHBn(CF3)2 (TY047)]	152

What follows are binders tested against human NK1 receptor (human) (UniProt P25103) (assay: radioligand competition vs [3H]substance P, membranes of hNK1 CHO cells).

Binder	Ki [nM]
Y[dC]GF[Nle]P[dC]W-{NH(3,5-(CF3)2-benzyl)} (disulfide 2-7) [Tyr[DCysGlyPheNleProDCys]TrpNHBn(CF3)2 (TY038)]	0.24
Y[dPen]GF[Nle]P[Pen]W-{NH‑Bn(CF3)2} (disulfide 2-7) [Tyr[DPenGlyPheNleProPen]TrpNHBn(CF3)2 (TY047)]	59

These binders were tested against rat NK1 receptor (rat) (UniProt P14600) (assay: radioligand competition vs [3H]substance P, membranes of rNK1 CHO cells).

Binder	Ki [nM]
Y[dC]GF[Nle]P[dC]W-{NH(3,5-(CF3)2-benzyl)} (disulfide 2-7) [Tyr[DCysGlyPheNleProDCys]TrpNHBn(CF3)2 (TY038)]	7.11
Y[dPen]GF[Nle]P[Pen]W-{NH‑Bn(CF3)2} (disulfide 2-7) [Tyr[DPenGlyPheNleProPen]TrpNHBn(CF3)2 (TY047)]	163

— patent US8026218
